Measured values as given in PMC4705688.

Legend:
[1] = biological target: His-Cmr (Mycobacterium tuberculosis H37Rv) (UniProt P9WMH5); experiment: EMSA
[2] = biological target: His-Cmr HTH- del195-244 (Mycobacterium tuberculosis H37Rv) (UniProt P9WMH5); experiment: EMSA
[3] = biological target: His-Cmr HTH+ del217-244 (Mycobacterium tuberculosis H37Rv) (UniProt P9WMH5); experiment: EMSA
[4] = biological target: His-Cmr (Mycobacterium tuberculosis H37Rv) (UniProt P9WMH5); experiment: DNase I footprinting

His-Cmr (Mycobacterium tuberculosis H37Rv), sequence (P9WMH5 whole entry): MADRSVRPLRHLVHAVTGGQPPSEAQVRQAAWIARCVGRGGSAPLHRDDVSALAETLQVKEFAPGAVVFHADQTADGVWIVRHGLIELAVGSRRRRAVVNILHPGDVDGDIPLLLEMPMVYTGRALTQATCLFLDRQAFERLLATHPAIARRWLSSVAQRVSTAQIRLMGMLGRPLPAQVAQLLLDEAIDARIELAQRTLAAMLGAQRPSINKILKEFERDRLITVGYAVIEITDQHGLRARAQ
His-Cmr HTH- del195-244 (Mycobacterium tuberculosis H37Rv), sequence (P9WMH5 1-194): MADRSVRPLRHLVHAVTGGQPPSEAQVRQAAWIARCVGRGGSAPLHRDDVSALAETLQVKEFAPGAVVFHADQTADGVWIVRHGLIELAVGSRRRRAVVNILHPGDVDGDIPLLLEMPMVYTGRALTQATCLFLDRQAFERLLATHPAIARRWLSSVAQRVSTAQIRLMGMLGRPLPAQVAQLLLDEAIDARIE
His-Cmr HTH+ del217-244 (Mycobacterium tuberculosis H37Rv), sequence (P9WMH5 1-216): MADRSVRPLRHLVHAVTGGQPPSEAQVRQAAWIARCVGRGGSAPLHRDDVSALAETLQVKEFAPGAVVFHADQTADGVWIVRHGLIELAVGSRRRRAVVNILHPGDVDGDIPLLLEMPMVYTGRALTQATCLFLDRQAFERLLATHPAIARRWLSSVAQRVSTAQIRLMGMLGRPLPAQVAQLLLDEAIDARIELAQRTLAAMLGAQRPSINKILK

Sequence | binding [1] | binding [2] | binding [3] | binding [4]
ATCTCAACTATGTGGCCTTGTCCTTAGTCACCGCCGACGGACACACCCTGCTGCACCACCCGTATACCCAGAGCGAGGTGGACATCAAGAAGAACGTGTTCACGATGATGATGCGGCTACCGTGGTTGTATCGCGTTCCCGTACATACGATTCACAAATTTGGCCACATGCTCAGCGGCATGGCGATCCGGATCGTC (double strand) [2G5 full] | binds | no binding | binds | –
CGGACTGCTGCTGCTCGCCGTTGTCTCCGGTGATTGGGTTGCCCATACCTCCTGGGGCGCAGCGTGGTTCAGCTTGTCACCGGTGACACTGTGTTGGCTTCTCATCAGCTATGGCTTCGCAGCTTCGGTGCTGCCGGTGTGGCTGCTGCTCGCGCCACGCGACTACCTGTCAACGTTCATGAAGG (double strand) [1C1 full] | binds | no binding | binds | binds
TAAAGTCACCGCCGGGGCCGATGTTCGCAGTCGCGGGCTCGGTGCCATCCATATCGTTGCGCAGCGCGATGCCGTGCCAATGCACCGACGTCGGATCACCCAGACGGTTGGTCACCGAGACGACAATCTCATCCCCGACGGTGGCCCGGATCAGTGGTCCGGGGATGGTGTTGCCGTAGGTCAGCGTGCTGACGATCGGCCCACCCAGGTCGATCCTCGCCGGCTGGGGGGTCAGCGTGGCGGTAACCGTTCGCCCACTGTGCGGCCGGGCCGCCTCGGCCGCGTCGATTGCAGCGGT (double strand) [Rv0846c] | binds | – | – | –
TCTATGGCGGCCAGGGACGCACATTGTGGGCTTCGGGGTAATTGTCTTGGGTTGGCTGCCCCGCGCTGCACAGGGTTACTGGCCCAGGAGGCGGACGTCATCGTGTTAACACCCGTCGGGATAACCTGGGAGCGGCGCAGCCAAGGAAGGAACCAACCGTCCGGTGTCAGACCTAGCCAGAACCGACGTCGTGCTGATC (double strand) [2C5 full] | binds | no binding | binds | –
